Reference: patent US20260042834A1 (HBM ALPHA THERAPEUTICS, published 2026)
Where two headings read alike, the source gives them in different places.

T1: corticotropin-releasing hormone (CRH) peptide (human and mouse (same sequence), not fully specified)
T1 peptide: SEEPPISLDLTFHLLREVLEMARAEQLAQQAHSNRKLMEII

T2: CRH (NT-Biotin) (human and mouse (same sequence), not fully specified; biotin at the N-terminus)
T2 peptide: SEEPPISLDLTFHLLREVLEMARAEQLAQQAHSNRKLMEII

T3: CRH (CT-Biotin) (human and mouse (same sequence), biotin on an added C-terminal K (CRH-K-Biotin))
T3 construct: also called Peptide 4 (CRH-Biotin)
T3 peptide: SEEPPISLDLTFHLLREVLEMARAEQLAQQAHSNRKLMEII

T4: corticotropin-releasing hormone (CRH) peptide (human and mouse, not fully specified)
T4 peptide: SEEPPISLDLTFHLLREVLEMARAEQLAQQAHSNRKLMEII

T5: CRH (CT-Biotin) (human and mouse, biotin on the added C-terminal K (-K-Biotin))
T5 construct: also called Peptide 4 (CRH-Biotin); C-terminally biotinylated corticotropin-releasing hormone
T5 peptide: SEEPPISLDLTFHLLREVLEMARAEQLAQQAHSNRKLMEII

T6: CRH (NT-Biotin) (human and mouse, not fully specified; biotin at the N-terminus)
T6 construct: also called Biotin-CRH; N-terminally biotinylated corticotropin-releasing hormone
T6 peptide: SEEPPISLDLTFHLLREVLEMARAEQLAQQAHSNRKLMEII


Assays:
[1] = target: T1, corticotropin-releasing hormone (CRH) …; test: cell-based or functional assay
CRH (NT-Biotin) [2] = target: T2, CRH (NT-Biotin); test: ELISA, biotinylated CRH on streptavidin plate
Method: (§1) Streptavidin (Thermo, Cat: 21125) was diluted in PBS to a concentration of 2 μg/ml. 100 μl of diluted streptavidin was added per well to ELISA microplates, and the plates were incubated overnight at 4° C. […] 100 μL of 3,3′,5,5′-tetramethylbenzidine (TMB) substrate (Biopanda, Cat: TMB-S-003) was added, and the plates were incubated at room temperature for 15 minutes. 100 μL of ELISA stopping solution (Solarbio, Cat #: C1058) was added to terminate the reaction, and the optical density at 450 nm (OD450 nm) was determined by an ELISA plate reader (Molecular Devices, Spectra max 384 plus).

CRH (CT-Biotin) [3] = target: T3, CRH (CT-Biotin); test: ELISA, biotinylated CRH on streptavidin plate
Method: as §1

[4] = target: T1, corticotropin-releasing hormone (CRH) …; test: cell-based or functional assay
CRH (CT-Biotin) [5] = target: T3, CRH (CT-Biotin); test: ELISA, biotinylated CRH on streptavidin plate
Method: as §1

[6] = target: T4, corticotropin-releasing hormone (CRH) …; test: cell-based or functional assay
CRH (CT-Biotin) [7] = target: T5, CRH (CT-Biotin); test: ELISA, C-terminally biotinylated CRH on streptavidin-coated plate
Method: as §1

CRH (NT-Biotin) [8] = target: T6, CRH (NT-Biotin); test: ELISA, N-terminally biotinylated CRH on streptavidin-coated plate
Method: as §1

Binder | hCRHR1 Luciferase Reporter Assay IC50 [1] [nM] | mCrhr1 Luciferase Reporter Assay IC50 [1] [nM] | EC50 (CRH (NT-Biotin) [2]) [nM] | EC50 (CRH (CT-Biotin) [3]) [nM] | also measured
PR302045 (antibody, human IgG1, kappa, V domains shown, humanized variant of PR301777) VH: EVQLVESGGGLVQPGGSLKLSCAASGFTFSNYWMNWVRQASGKGLEWVGEIRLKSNNYATHYAESVKGRFTISRDDSKNTAYLQMNSLKTEDTAVYYCTRGTLVYWGQGTLVTVSS VL: EIVLTQSPATLSLSPGERATLSCRASQSVSTSTYNYMHWFQQKPGQAPRLLIKFASNLESGIPARFSGSGSGTDFTLTISSLEPEDTAVYYCQHSWEIPYTFGQGTKLEIKR | 15.3 |  | 0.128 | 0.046 | 
PR302031 (antibody, human IgG1, kappa, V domains shown, humanized variant of PR301777) VH: EVQLVESGGGLVQPGGSLRLSCAASGFTFSNYWMNWVRQAPGKGLEWVGEIRLKSNNYATHYAESVKGRFTISRDDSKNSLYLQMNSLKTEDTAVYYCTVGTLVYWGQGTLVTVSS VL: EIVLTQSPATLSLSPGERATLSCRASQSVSTSTYNYMHWFQQKPGQAPRLLIKFASNLESGIPARFSGSGSGTDFTLTISSLEPEDTAVYYCQHSWEIPYTFGQGTKLEIKR | 14 |  | 0.037 | 0.028 | 
PR005657 (antibody, human IgG1, kappa, V domains shown, PTM-removal variant of PR004290) VH: EVQLVESGGVLVQPGGSLRLSCAASGFTFSSYWMTWVRQAPGKGLEWVANIKQDASEKYYVDSVKGRFTISRDNAKNSLFLQMNSLRAEDTAVYYCARTLIFDYWGQGTLVTVSS VL: DIVMTQSPLSLPVTPGEPASISCRSSQSLLHSTGYNSLEWYLQKPGQSPQLLIYLGSNRASGVPDRFSGSGSGTDFTLKISRVEAEDVGIYYCMQTLQTPITFGQGTRLEIKR |  |  |  |  | hCRHR1 Luciferase Reporter Assay IC50 [4]: 4.6 nM; mCrhr1 Luciferase Reporter Assay IC50 [4]: 11.8 nM; EC50 (CRH (CT-Biotin) [5]): 0.045 nM
PR301777 (antibody, human IgG1, kappa, V domains shown, Series 5; mouse variable domains, human IgG1 wildtype Fc) VH: EMKLEESGGGLVQPGGSMKLSCVASGFTFSNYWMNWVRQSPEKGLEWVAEIRLKSNNYATHYAESVKGRFTISRDDSKSGVYLQMNNLGAEDTGIYYCTVGTLVYWGQGTLVTVSA VL: DIVLTQSPASLAVSLGQRATISCRASQSVSTSTYNYMHWFQQKPGQPPKLLIKFASNLESGVPARFSGSGSGTDFTLNIHPVEEEDTATFYCQHSWEIPYTFGGGTKLEIKR | 0.674 | 2.42 | 0.043 | 0.043 | 
PR302312 (antibody, human IgG1, kappa, V domains shown, Mouse variable domains, expressed recombinantly with human IgG1 wildtype Fc; also called Series 10 mAb) VH: EVQLQQSGPELVKPGASVKMSCKASGYTFTDYFMKWMKQSHGKSLEWIGVINPNNGDTFYNQNFKGKATLTVDKSSSTAYMQLNSLTSEDSAVYYCTRGTARALFAYWGQGTLVTVSA VL: DVLMTQTPLSLPVSLGDQASISCRSSQSIVHSDGNTYLEWYLQRPGQSPKLLIYKVSNRFSGVPDRFSGSGSGTDFTLKISRVGAEDLGVYYCFQGSHVPWTFGGGTKLEVKR |  |  |  |  | hCRHR1 Reporter IC50 [6]: 1.37 nM; EC50 (CRH (CT-Biotin) [7]): ~0.011 nM; EC50 (CRH (NT-Biotin) [8]): 0.025 nM
PR302341 (antibody, human IgG1, kappa, V domains shown, Mouse variable domains, expressed recombinantly with human IgG1 wildtype Fc; also called Series 10 mAb) VH: EVQLQQSGPELVKPGASVKMSCKASGYTFTDYFMKWVKQSHGESLEWIGVINPNNGDIFYNQKFKGKATLTVDKSSSTAFMQLNSLTSEDSAVYSCARGTDRALFAYWGQGTLVAVSA VL: DVLMTQTPLSLPVSLGDQASISCRSGQSIVHSDGNTYLEWYLQRPGQSPRLLIYKVSNRFSGVPDRFSGSGSGTDFTLKISRVGAEDLGIYYCFQGSHIPWTFGGGTKLEVKR |  |  |  |  | hCRHR1 Reporter IC50 [6]: 0.503 nM; EC50 (CRH (CT-Biotin) [7]): 0.017 nM; EC50 (CRH (NT-Biotin) [8]): 0.023 nM

Now from value to binder, other results behind:

hCRHR1 Luciferase Reporter Assay IC50 [1] [nM] | mCrhr1 Luciferase Reporter Assay IC50 [1] [nM] | EC50 (CRH (NT-Biotin) [2]) [nM] | EC50 (CRH (CT-Biotin) [3]) [nM] | Binder | also measured
2.49 | 11.5 | 0.077 | 0.019 | PR302066 (antibody, human IgG1, kappa, V domains shown, humanized variant of PR301777) VH: EMQLVESGGGLVKPGGSLRLSCAASGFTFSNYWMNWVRQAPGKGLEWVAEIRLKSNNYATHYAESVKGRFTISRDDSKSTVYLQMNSLKTEDTAVYYCTVGTLVYWGQGTLVTVSS VL: EIVLTQSPATLSLSPGERATLSCRASQSVSTSTYNYMHWFQQKPGQAPRLLIKFASNLESGIPARFSGSGSGTDFTLTISSLEPEDTAVYYCQHSWEIPYTFGQGTKLEIKR | 
0.572 | 2.7 | 0.021 | 0.01 | PR302050 (antibody, human IgG1, kappa, V domains shown, humanized variant of PR301777) VH: EMQLVESGGGLVQPGGSLKLSCAASGFTFSNYWMNWVRQASGKGLEWVAEIRLKSNNYATHYAESVKGRFTISRDDSKSTVYLQMNSLKTEDTAVYYCTVGTLVYWGQGTLVTVSS VL: DIVLTQSPDSLAVSLGERATINCRASQSVSTSTYNYMHWFQQKPGQPPKLLIKFASNLESGVPDRFSGSGSGTDFTLTISSLQAEDTAVYYCQHSWEIPYTFGQGTKLEIKR | 
